Source: PMC6625990, “Structural underpinnings of Ric8A function as a G-protein α-subunit chaperone and guanine-nucleotide exchange factor” (Nature Communications, 2019)
Numbering of substitutions follows the chain as printed. Names may count otherwise. Read-outs that look alike come from different tables or passages of the source.

B1: Ric8A1–492: bovine Ric8A construct truncated at the C-terminus (residues 1–492) (protein)
chain: MEPRAVADALETGEEDVVMEALRAYNRENSQSFTFDDAQQEDRKRLAKLLVSVLEQGLPPSRRVIWLQSIRILSRDRSCLDSFTSRRSLQALACYAGISASQGSVPEPLNMDVVLESLKCLCNLVLSSPVAQALAAEAGLVVRLAERVGLCRQSSFPHDVQFFDLRLLFLLTALRTDVRQQLFQELQGVRLLTRALELTLGMTEGERHPELLPPQETERAMEILKVLFNITFDSIKREVDEEDAALYRHLGTLLRHCVMLAAAGDRTEELHGHAVNLLGNLPVKCLDVLLTLEPHEGSLEFLGVNMDVIRVLLSFMEKRLHQTHRLKESVAPVLSVLTECARMHRPARKFLKAQVLPPLRDVRTRPEVGELLRNKLVRLMTHLDTDVKRVAAEFLFVLCSESVPRFIKYTGYGNAAGLLAARGLMAGGRPEGQYSEDEDTDTDEYKEAKASINPVTGRVEEKPPNPMEGMTEEQKEHEAMKLVNMFDKLSRH
modifications: left off: His6, N-terminal, state not stated
B2: R75M: R75M mutant of Ric8A1–492 (protein, UniProt Q5E9J8 1-492, looked up, variant R75M)
chain: B1 chain with R75M
modifications: residues 1-492
B3: Ric8A1–452: bovine Ric8A construct, residues 1–452 (protein)
chain: MEPRAVADALETGEEDVVMEALRAYNRENSQSFTFDDAQQEDRKRLAKLLVSVLEQGLPPSRRVIWLQSIRILSRDRSCLDSFTSRRSLQALACYAGISASQGSVPEPLNMDVVLESLKCLCNLVLSSPVAQALAAEAGLVVRLAERVGLCRQSSFPHDVQFFDLRLLFLLTALRTDVRQQLFQELQGVRLLTRALELTLGMTEGERHPELLPPQETERAMEILKVLFNITFDSIKREVDEEDAALYRHLGTLLRHCVMLAAAGDRTEELHGHAVNLLGNLPVKCLDVLLTLEPHEGSLEFLGVNMDVIRVLLSFMEKRLHQTHRLKESVAPVLSVLTECARMHRPARKFLKAQVLPPLRDVRTRPEVGELLRNKLVRLMTHLDTDVKRVAAEFLFVLCSESVPRFIKYTGYGNAAGLLAARGLMAGGRPEGQYSEDEDTDTDEYKEAKASI
modifications: left off: His6, N-terminal, state not stated

How the values were obtained:
[1] = DSF thermostability of Ric8A constructs and Ric8A1–492 mutants (protein alone); format: physicochemical, bovine; conditions: DSF; for Tm: Sypro Orange, protein alone 0.5 mg/ml, 20 mM Tris-HCl pH 7.5, 150 mM KCl, 5% glycerol, 1 mM TCEP, 1 °C/minute, mean ± SD (n = 3); for mean Tm / Tm (C ): protein alone, source data; for mean Tm: mean of replicates
Method: Stabilities of Ric8A constructs with and without peptide ligands were assessed using differential scanning fluorimetry (DSF), in which an increase in fluorescence of the Sypro Orange dye is measured. Ric8A1–492, Ric8A1–452 and Ric8A1–426 in 20 mM Tris-HCl (pH 7.5) buffer containing 150 mM KCl, 5% glycerol, and 1 mM TCEP with and without peptide were used at a final concentration of 0.5 mg/ml and were supplemented with a 1000-fold dilution of Sypro Orange dye (Invitrogen). Temperature was increased at 1 °C/minute and fluorescence signals were recorded using real-time PCR (C1000 Touch thermal cycler, Bio Rad), with the cycler set to FRET mode and the excitation wavelength set at 450–490 nm and the emission wavelength at 560–580 nm.

Gαt333–350 = experiment: BLI: Ric8A1–492 and its mutants binding to biotinylated Gαt333–350; conditions: for Kd: BLI steady state, source data
Method: (§1) An Octet RED96 system and streptavidin (SA)-coated biosensors (FortéBio, Menlo Park, CA) were used to measure association and dissociation kinetics for Gα peptides or the full-length Avi-tagged Gαt in relation to Ric8A1–492, Ric8A1–452, and Ric8A1–426. To obtain the Avi-tagged Gαt, Gαt was cloned into modified pET21a vector with the N-terminal His6-tag followed by the Avi tag and TEV cleavage site[59]. The Avi-tagged I340Q/N343H mutant of Gαt was prepared by QuikChange protocol. BL21(DE3) cells for expression of the Avi-tagged Gαt were grown in 2TY media supplemented with biotin (10 mg/liter), induced at OD600 of 0.6 with 50 µM IPTG and further grown overnight at 16 °C. Binding studies were performed in 20 mM Tris, 150 mM KCl, 5% glycerol, 1 mM TCEP, 0.5 mg/ml BSA, pH 8.0. All steps were performed at 26 °C, with biosensors stirred into 0.2 ml of sample in each well at 1000 rpm, and at a data acquisition rate of 5.0 Hz. N-terminally biotinylated Gαt333–350, Gαs363–380, C1 peptide and C2 peptide were loaded onto SA sensors at a concentration of 0.05, 0.05, 0.005, and 0.01 mg/ml for 40–90 seconds. Data for association and dissociation phases of the assay were collected as shown in Fig. 1b and Supplementary Figs. 8, 11, 12, and 14. To correct for baseline drift and non-specific binding, reference sensors lacking bound Gα peptide were used in the BLI assays with Ric8A proteins at the highest concentrations. Kinetic data fitting was performed using FortéBio Data Analysis software 10.0. For each concentration of Ric8A1–492, dissociation rate constant (kd) values were calculated from the corresponding dissociation phases of the curves. These kd values were used to calculate the association rate constant (ka) values from the association phases for each concentration according to the equation1 ka=kobserved-kd∕Ric8A1-492 The average ka and kd were calculated as means of the individual ka and kd values for all curves. Equilibrium dissociation constant KD was calculated as mean kd/mean ka. Steady-state data fitting was performed using the GraphPad Prism 7 software with the equation for one site specific binding.

Gαt [2] = experiment: BLI: Ric8A1–492 and its mutants binding to full-length Avi-tagged Gαt; conditions: BLI steady state, source data
Method: as §1

Gαi = experiment: GTPγS binding to Gαi (GDP/GTPγS exchange, GEF activity of Ric8A constructs); format: biochemical; conditions: for Rate of GDP/GTPγS exchange reaction on Gαi, mean: Gαi 1 µM, GDP 1 µM, Ric8A construct 1 µM, GTPγS 10 µM, 20 mM Tris-HCl pH 8.0, 150 mM NaCl, 5% glycerol, 1 mM TCEP, 10 mM MgCl2, tryptophan fluorescence ex 295 nm, em 340 nm, one phase association fit; for Rate of GDP/GTPγS exchange reaction on Gαi: same conditions
Method: The rates of GTPγS binding to Gαi in the absence or presence of Ric8A1–492 (Ric8A1–452) were measured by following the increase in fluorescence of Gαi tryptophan. Gαi (1 µM) was mixed with GDP (1 µM) in a fluorescence cuvette, in 20 mM Tris-HCl (pH 8.0) buffer containing 150 mM NaCl, 5% glycerol, 1 mM TCEP and 10 mM MgCl2, and incubated for 2 min. The binding reaction was initiated by addition of Ric8A1–492 or Ric8A1–452 (1 µM each) and/or and GTPγs (10 µM). Fluorescence at 340 nm was monitored with the excitation set at 295 nm. Data were fit to an equation for one phase association using the GraphPad Prism 7.05 software.

Gαt [3] = experiment: SEC co-migration of Ric8A1–492 R75M mutant with full-length Gαt; format: binding
Method: Ric8A1–492/miniGαi complex was prepared by mixing Ric8A with miniGαi at a 1:1.5 molar ratio. The complex was purified by SEC using a HiLoad 16/600 Superdex 200 pg column equilibrated with 20 mM Tris-HCl (pH 8.0) buffer containing 150 mM KCl, 5% glycerol, and 1 mM TCEP. This procedure removed excess miniGαi, ensuring 1:1 stoichiometry of the complex. Ric8A1–492/Gαt complexes were purified by mixing Ric8A1–492 with Gαt (1:1.5 molar ratio), followed by SEC using Superdex 200 10/300 GL column (GE healthcare) to remove excess Gαt. […]
with Gαt. (A) Ric8A1-492 was mixed with Gαt and loaded onto a MW-calibrated Superdex 200 10/300 column. SEC profile - black curve. Blue curve and a gel in the inset with a blue outline represent SEC profile of Ric8A1-492 alone. Red curve and a gel in the inset with a red outline represent SEC profile of Gαt alone. (B) Peak fractions in A analyzed by SDS-PAGE. Peak 1 containing the Ric8A1-492/Gαt complex is not fully resolved from peak 2 corresponding to Ric8A1-492 alone. (C) The R75M mutant of Ric8A1-492 was mixed with Gαt and loaded onto a MW-calibrated Superdex 200 16/600 column. SEC profile - black curve. Blue line and a gel in inset represent SEC profile of R75M alone. Red curve – SEC profile of Gαt alone. (D) Peak fractions in C analyzed by SDS-PAGE. […]

| Molecule | Tm [1] | mean Tm [1] | Tm (C ) ([1]; replicate 1) | Tm (C ) ([1]; replicate 2) | Tm (C ) ([1]; replicate 3) | Rate of GDP/GTPγS exchange reaction on Gαi, mean (Gαi) | Rate of GDP/GTPγS exchange reaction on Gαi (Gαi; replicate 1) | Rate of GDP/GTPγS exchange reaction on Gαi (Gαi; replicate 2) | further results |
| --- | --- | --- | --- | --- | --- | --- | --- | --- | --- |
| B1 | 46.8 ± 0.2 °C | 46.8 C | 46.9 C | 46.96 C | 46.7 C | 0.3229 | 0.2658 | 0.38 | Kd (Gαt333–350; experiment 1, read-out: KD (uM), Gαt333-350): 0.27 µM; Kd (Gαt333–350; experiment 2, read-out: KD (uM), Gαt333-350): 0.33 µM; Kd (Gαt333–350; experiment 3, read-out: KD (uM), Gαt333-350): 0.33 µM; Kd (Gαt333–350; experiment 4, read-out: KD (uM), Gαt333-350): 0.19 µM; Kd (Gαt333–350; mean of replicates, read-out: Mean KD, Gαt333-350): 0.28 µM; Kd (Gαt333–350; representative experiment, read-out: KD, steady-state curve of Figure 1c): 0.27 µM; Kd (Gαt [2]; experiment 1, read-out: KD (nM), Gαt): 22.6 nM; Kd (Gαt [2]; experiment 2, read-out: KD (nM), Gαt): 27 nM; Kd (Gαt [2]; experiment 3, read-out: KD (nM), Gαt): 23.1 nM; Kd (Gαt [2]; mean of replicates, read-out: mean KD, Gαt): 24.2 nM |
| B2 |  | 45.9 C | 45.86 C | 45.81 C | 45.88 C |  |  |  | Tm (C ) ([1]; replicate 4): 45.96 C; binding to Gαt333–350 (in words) (Gαt333–350; BLI): ablated the binding; interaction with full-length Gαt (in words) (Gαt [3]): disruption of the interaction |
| B3 | 45.5 ± 0.1 °C |  |  |  |  | 0.03238 | 0.03221 | 0.04368 | Tm ([1]; listed as Ric8A1-452): 45.5 °C; Rate of GDP/GTPγS exchange reaction on Gαi (Gαi; replicate 3): 0.02126 |
